Experimental data from article PMC3923242, “New function for Escherichia coli xanthosine phophorylase (xapA): genetic and biochemical evidences on its participation in NAD^+ salvage from nicotinamide” (BMC Microbiology, 2014).

Substrate: NC(=O)c1cccnc1
Test: purified protein
Assay type: biochemical, Escherichia coli
Conditions: 20 mM ribose-1-phosphate, 50 mM MES pH 6.0, 37 °C, 30 min, 0.1 mg/ml xapA, NR synthesis direction

B1: xanthosine phosphorylase (xapA; purine nucleoside phosphorylase II, PNP-II) (Escherichia coli K-12) (protein)
chain: MSQVQFSHNPLFCIDIIKTYKPDFTPRVAFILGSGLGALADQIENAVAISYEKLPGFPVSTVHGHAGELVLGHLQGVPVVCMKGRGHFYEGRGMTIMTDAIRTFKLLGCELLFCTNAAGSLRPEVGAGSLVALKDHINTMPGTPMVGLNDDRFGERFFSLANAYDAEYRALLQKVAKEEGFPLTEGVFVSYPGPNFETAAEIRMMQIIGGDVVGMSVVPEVISARHCDLKVVAVSAITNMAEGLSDVKLSHAQTLAAAELSKQNFINLICGFLRKIA
notes: ORF from E. coli genomic DNA in pET28a (EcoRI/HindIII), expressed in E. coli Rosetta (DE3), Ni-NTA purified (His-tag), tag removal not described
How did the Km turn out when B1 was run?
The Km was 5.81 mM.
